From article PMC3670040, “Structure of Lipid Kinase p110β/p85β Elucidates an Unusual SH2-Domain-Mediated Inhibitory Mechanism” (Molecular Cell, 2011)
Read-outs that look alike come from different tables or passages of the source.

Key:
p110β [1] = target: T1, p110β (Mus musculus, UniProt Q8BTI9); assay: Transcreener ADP formation (fluorescence polarization), diC8-PIP2/POPS liposomes, mouse p110β complexes; format: biochemical; settings: 10 μM PDGFR pY2; Figure 3A
T1 construct: Mouse His6-p110β(1-1064)/p85β-icSH2(423-722) complex; made in house; host or cells: Sf9 insect cells (baculovirus co-infection)
T1 sequence (Q8BTI9 whole entry, one chain of several): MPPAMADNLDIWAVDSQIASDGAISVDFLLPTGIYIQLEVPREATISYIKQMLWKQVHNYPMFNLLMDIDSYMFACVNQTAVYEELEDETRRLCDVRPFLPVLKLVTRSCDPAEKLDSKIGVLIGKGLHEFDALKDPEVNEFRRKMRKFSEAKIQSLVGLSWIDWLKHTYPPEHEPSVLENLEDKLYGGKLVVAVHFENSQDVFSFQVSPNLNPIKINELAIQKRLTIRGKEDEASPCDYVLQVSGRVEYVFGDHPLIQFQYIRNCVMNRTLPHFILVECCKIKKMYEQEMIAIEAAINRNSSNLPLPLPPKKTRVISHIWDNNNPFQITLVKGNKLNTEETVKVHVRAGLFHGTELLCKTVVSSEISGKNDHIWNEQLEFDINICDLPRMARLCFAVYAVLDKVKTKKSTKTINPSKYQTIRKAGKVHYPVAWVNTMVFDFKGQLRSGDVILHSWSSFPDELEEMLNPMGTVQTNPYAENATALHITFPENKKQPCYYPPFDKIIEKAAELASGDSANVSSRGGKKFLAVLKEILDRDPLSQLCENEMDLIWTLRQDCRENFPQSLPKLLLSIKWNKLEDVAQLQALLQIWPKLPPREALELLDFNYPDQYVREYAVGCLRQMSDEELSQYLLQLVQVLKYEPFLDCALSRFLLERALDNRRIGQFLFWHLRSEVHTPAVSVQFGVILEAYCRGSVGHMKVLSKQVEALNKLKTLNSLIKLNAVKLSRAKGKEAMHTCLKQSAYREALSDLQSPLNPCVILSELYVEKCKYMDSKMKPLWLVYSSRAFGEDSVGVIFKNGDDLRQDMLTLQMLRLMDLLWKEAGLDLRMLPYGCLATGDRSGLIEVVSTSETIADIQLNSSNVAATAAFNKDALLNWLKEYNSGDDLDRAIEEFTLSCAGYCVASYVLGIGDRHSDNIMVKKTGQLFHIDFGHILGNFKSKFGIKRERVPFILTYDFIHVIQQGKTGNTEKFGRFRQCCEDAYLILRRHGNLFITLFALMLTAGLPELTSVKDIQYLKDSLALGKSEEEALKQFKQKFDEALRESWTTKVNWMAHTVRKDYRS
Description: (§1) Figure 1 Inhibition of p110β by p85-Type Regulatory Subunits and Activation of the Complexes by RTK Phosphopeptide (A) Domain organization of p110β and the regulatory subunits p85α, p85β, and p55γ. The color scheme for the domains is used for all figures, unless otherwise stated. […] The inhibition is released upon addition of the 10 μM PDGFR pY2. […] The y axis is expressed as a change in fluorescence polarization (ΔmP), which is obtained by subtracting the observed polarization for the construct at a given enzyme concentration from the maximum fluorescence polarization for that construct. The plateau in these assays arises due to the competitive nature of the ADP detection system, based on displacement of ADP-Alexa 633 tracer from the ADP^2-antibody by ADP generated during the PI3K assay (see Supplemental Experimental Procedures). All measurements were done in triplicates, and the error bars indicate the standard error of the mean (SEM). (C) Kinase activity of p110β/p85β complexes with monomeric substrate (75 μM diC8-PIP2) in the presence and absence of pY2; y axis as in (B). (D) Basal- and pY2-stimulated activities of 35 nM PI3K complexes in the absence of lipids (ATP hydrolysis). Activities are given as percent of ATP converted to ADP using the Transcreener assay. Bars indicate SEM. TEXT PRINTED IN THE PICTURE: (B) p110β/nic: EC50 (nM): 15 | (B) p110β/nic+pY2: EC50 (nM): 0.14 | (B) p110β/ic: EC50 (nM): 1 | (B) p110β/ic+pY2: EC50 (nM): 0.21 | (B) p110β/ni: EC50 (nM): 0.84 | (B) p110β/ni+pY2: EC50 (nM): 0.24 | (B) p110β/i: EC50 (nM): 0.12 | (B) p110β/i+pY2: EC50 (nM): 0.14 | (B) ΔABD-p110β: EC50 (nM): 0.06 | (B) ΔABD-p110β+pY2: EC50 (nM): 0.05 | (C) p110β/nic: EC50 (nM): 24 | (C) p110β/nic+pY2: EC50 (nM): 3 | (C) p110β/ic: EC50 (nM): 5 | (C) p110β/ic+pY2: EC50 (nM): 2 | (C) p110β/ni: EC50 (nM): 4 | (C) p110β/ni+pY2: EC50 (nM): 2 […]
(§2) Figure 3 Mutation Y677A in p85β-cSH2 Releases Inhibitory Effect on p110β (A) Kinase activity (ADP formation) of p110β in a complex with p85β-icSH2-Y677A (Y677A-ic) compared to the wild-type complex (ic) in the absence and presence of 10 μM PDGFR pY2 (ADP formation on the y axis expressed as in Figure 1B). (B) Comparison of p110β activities of 1 nM complexes with wild-type or Y677 mutant nicSH2 or icSH2 (activity shown as in Figure 1D). TEXT PRINTED IN THE PICTURE: (A) p110β/ic: EC50 (nM): 1 | (A) p110β/ic+pY2: EC50 (nM): 0.15 | (A) p110β/ic-Y677A: EC50 (nM): 0.11 | (A) p110β/ic-Y677A+pY2: EC50 (nM): 0.08 […]
(§3) The lipid kinase activity was determined using the Transcreener ADP2 FP Assay (BellBrook Labs, Madison, WI) according to manufacturer‟s specifications. This non-radioactive assay measures activity by quantitating the amount of ADP formed. The ADP formed by PI3K competes with fluorescent ADP tracer for binding to an anti-ADP antibody, thereby decreasing fluorescence polarization. Because of the competitive nature of this assay, the change in fluorescence polarization signal is not a linear function of enzyme activity, and a convenient measure of enzyme activity is the EC50, or the concentration of enzyme necessary to give half-maximal inhibition of labeled ADP binding to the antibody, for a given concentration of substrate and a fixed time of reaction at initial rate. While activity of two different enzyme constructs can be compared at a fixed concentration of protein and a fixed concentration of substrate, the assay is most reliable when about 2%-10% of the ATP is […]
(§4) Consequently, the EC50 provides a convenient way to compare the activities of various constructs. Briefly, reactions were performed in 10 μl volume in 384-well black plates (Corning 3676) and they contained final 100 μM ATP, 75 μM lipids and a series of protein concentration varying from 0.001 nM to 2.5 μM. Serial dilutions of protein heterodimers were prepared in buffer F (50 mM Hepes pH 7.5, 100 mM NaCl, 0.03% CHAPS, 4 mM DTT) in 5 μl […]
volume. […]

p110β [2] = assay: as above; format: biochemical; settings: for EC50: Figure 3A, Y677A vs wild-type, diC8-PIP2/POPS, 100 μM ATP, 1 h, room temperature
Description: as §1, §2, §3, §4
volume. […]

activation by pY2 (p110β [1]): not activated by pY2 | EC50 (p110β [2]; absence of pY2, read-out: EC50 (enzyme concentration), kinase activity, basal): 0.11 nM | EC50 (p110β [2]; with 10 μM PDGFR pY2, read-out: EC50 (enzyme concentration), kinase activity, + pY2): 0.08 nM
B1: p110β/ic-Y677A: p110β in a complex with p85β-icSH2-Y677A (protein)
chain: QQDQVVKEDSIEAVGAQLKVYHQQYQDKSREYDQLYEEYTRTSQELQMKRTAIEAFNETIKIFEEQGQTQEKCSKEYLERFRREGNEKEMQRILLNSERLKSRIAEIHESRTKLEQDLRAQASDNREIDKRMNSLKPDLMQLRKIRDQYLVWLTQKGARQRKINEWLGIKNETEDQYSLMEDEDALPHHEERTWYVGKINRTQAEEMLSGKRDGTFLIRESSQRGCYACSVVVDGDTKHCVIYRTATGFGFAEPANLYGSLKELVLHYQHASLVQHNDALTVTLAHPVRAPGPGPPSAAR
basal activity versus wild-type complex (p110β [2]; absence of pY2, ADP formation, Figures 3A, 3B): more active than the wild-type p110β/p85β-icSH2
